B1: Isoform 2 of Bardet-Biedl syndrome 7 protein (Homo sapiens), Q8IWZ6-2 (parent)
chain: MDLILNRMDYLQVGVTSQKTMKLIPASRHRATQKVVIGDHDGVVMCFGMKKGEAAAVFKTLPGPKIARLELGGVINTPQEKIFIAAASEIRGFTKRGKQFLSFETNLTESIKAMHISGSDLFLSASYIYNHYCDCKDQHYYLSGDKINDVICLPVERLSRITPVLACQDRVLRVLQGSDVMYAVEVPGPPTVLALHNGNGGDSGEDLLFGTSDGKLALIQITTSKPVRKWEIQNEKKRGGILCIDSFDIVGDGVKDLLVGRDDGMVEVYSFDNANEPVLRFDQMLSESVTSIQGGCVGKDSYDEIVVSTYSGWVTGLTTEPIHKESGPGEELKINQEMQNKISSLRNELEHLQYKVLQERENYQQSSQSSKAKSAVPSFGINDKFTLNKDDASYSLILEVQTAIDNVLIQSDVPIDLLDVDKNSAVVSFSSCDSESNDNFLLATYRCQADTTRLELKIRSIEGQYGTLQAYVTPRIQPKTCQVRQYHIKPLSLHQRTHFIDHDRPMNTLTLTGQFSFAEVHSWVVFCLPEVPEKPPAGECVTFYFQNTFLDTQLESTYRKGEGVFKSDNISTISILKDVLSKEATKRKINLNISYEINEVSVKHTLKLIHPKLEYQLLLAKKVQLIDALKELQIHEGNTNFLIPEYHCILEEADHLQEEYKKQPAHLERLYG
partner: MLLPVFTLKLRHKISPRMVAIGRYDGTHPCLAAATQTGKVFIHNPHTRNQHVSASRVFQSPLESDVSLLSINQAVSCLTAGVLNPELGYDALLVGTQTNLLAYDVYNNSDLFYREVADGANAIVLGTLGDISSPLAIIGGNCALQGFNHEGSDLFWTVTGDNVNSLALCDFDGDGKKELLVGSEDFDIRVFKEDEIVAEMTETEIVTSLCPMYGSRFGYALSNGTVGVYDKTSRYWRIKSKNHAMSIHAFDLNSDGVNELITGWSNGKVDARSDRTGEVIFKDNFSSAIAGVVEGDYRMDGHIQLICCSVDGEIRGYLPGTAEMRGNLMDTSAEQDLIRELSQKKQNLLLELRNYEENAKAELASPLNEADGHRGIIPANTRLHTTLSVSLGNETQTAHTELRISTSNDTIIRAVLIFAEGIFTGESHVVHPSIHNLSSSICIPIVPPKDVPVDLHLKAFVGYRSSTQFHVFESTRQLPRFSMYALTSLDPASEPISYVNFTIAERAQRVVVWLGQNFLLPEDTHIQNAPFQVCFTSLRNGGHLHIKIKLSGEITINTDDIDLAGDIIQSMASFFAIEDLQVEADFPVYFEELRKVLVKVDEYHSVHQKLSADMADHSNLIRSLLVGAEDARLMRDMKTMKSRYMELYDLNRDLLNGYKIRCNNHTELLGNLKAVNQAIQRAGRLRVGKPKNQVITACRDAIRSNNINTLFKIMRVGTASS

Variants of: B1
Conditions: with bbs2_human BBS2, Q9BXC9

Row | Variant | effect of a mutation on the interaction
1 | T542K | with no effect
2 | F543A | with no effect
3 | F543K | with no effect
4 | Y544A | with no effect
5 | Y544E | with no effect
6 | F545K | with no effect
7 | Q546K | with no effect
8 | N547E | with no effect
9 | N547K | with no effect
10 | T548E | with no effect
11 | T548K | with no effect
12 | T548S | disrupting interaction strength
13 | L550A | with no effect
14 | L550K | with no effect
15 | D551K | with no effect
16 | T552A | with no effect
17 | T552E | with no effect
18 | Q553A | with no effect
19 | Q553E | with no effect
20 | Q553K | with no effect
21 | L554E | with no effect
22 | E555A | with no effect
23 | E555K | with no effect
24 | S556A | with no effect

Row | Variant | effect of a mutation on the interaction
25 | S556E | with no effect
26 | S556K | with no effect
27 | T557E | with no effect
28 | T557K | with no effect
29 | Y558K | with no effect
30 | K560A | with no effect
31 | G561A | with no effect
32 | G561E | with no effect
33 | G561K | with no effect
34 | G561R | disrupting interaction strength
35 | G561S | disrupting interaction strength
36 | G563R | disrupting interaction strength
37 | V564A | with no effect
38 | V564E | with no effect
39 | F565A | with no effect
40 | K566A | with no effect
41 | K566E | with no effect
42 | S567A | with no effect
43 | N569A | with no effect
44 | N569E | with no effect
45 | N569K | with no effect
46 | I570E | with no effect
47 | S571A | with no effect
48 | S571E | with no effect

Further lines, results first:

Row | effect of a mutation on the interaction | Variant
49 | with no effect | V541K
50 | with no effect | T542A
51 | with no effect | T542E
52 | with no effect | F543E
53 | with no effect | Y544K
54 | with no effect | F545A
55 | with no effect | F545E
56 | with no effect | Q546A
57 | with no effect | Q546E
58 | with no effect | N547A
59 | with no effect | T548A
60 | with no effect | F549A
61 | with no effect | F549E
62 | with no effect | F549K
63 | with no effect | L550E
64 | with no effect | D551A
65 | with no effect | D551E
66 | with no effect | T552K
67 | with no effect | L554A
68 | with no effect | L554K
69 | with no effect | T557A
70 | with no effect | Y558A

Row | effect of a mutation on the interaction | Variant
71 | with no effect | Y558E
72 | with no effect | R559A
73 | with no effect | R559E
74 | with no effect | R559K
75 | with no effect | K560E
76 | with no effect | E562A
77 | with no effect | E562K
78 | with no effect | G563A
79 | with no effect | G563E
80 | with no effect | G563K
81 | with no effect | V564K
82 | with no effect | F565E
83 | with no effect | F565K
84 | with no effect | S567E
85 | with no effect | S567K
86 | with no effect | D568A
87 | with no effect | D568E
88 | with no effect | D568K
89 | with no effect | I570A
90 | with no effect | I570K
91 | disrupting interaction strength | I570L
92 | with no effect | S571K

From IntAct's records for PubMed 29039417
